Experimental data published in the supplement of paper PMC9876800.

System: peptide library, one residue held at a place counted from the S/T acceptor
Assay: relative phosphorylation of the sub-library (ratio to the mean residue at this position); higher = residue favoured
Summary of the method: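 Purified recombinant kinases, either human or orthologue constructs, were incubated in 384-well plates with biotinylated degenerate peptide sub-libraries. Each sub-library fixed one residue at one position around a central Ser/Thr. Peptides at 50 μM and 50 μM ATP spiked with γ-32P-ATP were used for 90 min under kinase-specific conditions, and spots on streptavidin membranes were phosphorimaged and quantified by densitometry. Relative sub-library phosphorylation is expressed as a ratio to the mean residue at that position.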

Sequence of EEF2K, construct: Full length, human (O00418 whole entry, looked up): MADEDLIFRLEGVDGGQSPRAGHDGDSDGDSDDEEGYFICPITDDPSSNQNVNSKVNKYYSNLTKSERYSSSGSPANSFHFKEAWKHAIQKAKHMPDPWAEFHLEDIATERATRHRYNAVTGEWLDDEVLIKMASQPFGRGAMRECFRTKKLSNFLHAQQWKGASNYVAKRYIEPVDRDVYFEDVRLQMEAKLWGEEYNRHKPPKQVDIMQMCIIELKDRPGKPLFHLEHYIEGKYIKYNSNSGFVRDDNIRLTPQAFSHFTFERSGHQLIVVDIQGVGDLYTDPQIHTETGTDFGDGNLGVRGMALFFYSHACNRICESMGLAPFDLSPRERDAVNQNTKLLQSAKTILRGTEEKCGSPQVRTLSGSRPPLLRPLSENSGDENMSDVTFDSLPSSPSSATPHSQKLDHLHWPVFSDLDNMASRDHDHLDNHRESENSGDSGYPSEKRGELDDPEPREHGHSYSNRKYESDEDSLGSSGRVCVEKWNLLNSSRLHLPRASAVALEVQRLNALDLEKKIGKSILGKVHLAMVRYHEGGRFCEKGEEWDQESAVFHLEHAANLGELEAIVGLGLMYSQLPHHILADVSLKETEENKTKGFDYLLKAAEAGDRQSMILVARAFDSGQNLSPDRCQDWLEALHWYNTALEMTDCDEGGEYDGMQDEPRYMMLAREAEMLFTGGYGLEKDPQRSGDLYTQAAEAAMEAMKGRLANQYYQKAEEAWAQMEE
Sequence of PLK2, construct: aa57-360, human (Q9NYY3 57-360, looked up): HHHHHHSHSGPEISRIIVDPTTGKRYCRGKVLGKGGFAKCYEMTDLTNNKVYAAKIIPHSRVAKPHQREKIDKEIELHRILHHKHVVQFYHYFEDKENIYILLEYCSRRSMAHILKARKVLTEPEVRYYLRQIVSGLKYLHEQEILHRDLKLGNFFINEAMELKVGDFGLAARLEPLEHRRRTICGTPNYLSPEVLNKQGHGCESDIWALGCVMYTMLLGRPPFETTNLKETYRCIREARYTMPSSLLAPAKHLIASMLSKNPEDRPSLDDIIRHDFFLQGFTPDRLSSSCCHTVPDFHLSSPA

PRKACA, construct: Full length, human (from UniProt P17612)
relative phosphorylation
Details	at +1	at +2	at +3	at +4	at -1	at -2	at -3	at -4	at -5
A fixed	0.926	1.32	0.946	0.869	0.966	0.373	0.581	1.11	1.08
D fixed	0.659	1.28	1.04	1.17	0.57	0.148	0.148	0.696	0.581
E fixed	0.547	0.718	0.99	1.26	0.468	0.122	0.159	0.757	0.606
F fixed	1.33	1.06	0.999	0.813	0.713	0.19	0.197	0.637	0.996
G fixed	0.81	1.09	1.06	1.1	1.26	0.308	0.503	1.24	1.19
H fixed	0.909	1.75	1.32	1.13	1.29	0.538	1.14	1.07	1.16
I fixed	1.33	0.697	0.625	0.91	0.334	0.147	0.152	0.606	0.671
K fixed	1.06	0.686	0.888	0.791	1.84	3.87	2.61	1.93	1.86
L fixed	1.41	0.719	0.919	0.885	0.874	0.227	0.152	0.751	0.715
M fixed	1.2	0.772	0.774	0.898	1.07	0.198	0.192	0.837	0.748
N fixed	0.887	1.05	1.11	1.11	1.34	0.299	0.305	0.839	0.894
P fixed	0.293	1.03	1.43	1.52	1.27	0.197	0.63	0.941	0.898
Q fixed	1.03	1.15	1.01	1.07	0.951	0.563	0.644	0.982	0.783
R fixed	1.04	0.818	1.04	0.971	1.76	9.26	8.72	2.43	2.05
V fixed	1.33	0.953	0.696	0.779	0.468	0.155	0.179	0.631	0.744
W fixed	1.27	0.905	1.16	0.999	0.775	0.208	0.324	0.772	1.13
Y fixed	0.967	0.992	1	0.732	1.04	0.199	0.373	0.771	0.892
pThr fixed	0.891	0.743	0.951	1.62	0.312	0.225	0.261	0.625	0.644
pTyr fixed	0.993	1.03	1.14	1.42	0.798	0.214	0.283	0.742	0.703

PLK2, construct: aa57-360, human (from UniProt Q9NYY3)
relative phosphorylation
Details	at +1	at +2	at +3	at +4	at -1	at -2	at -3	at -4	at -5
A fixed	0.569	0.927	0.69	0.793	0.879	0.734	0.559	0.825	0.975
D fixed	0.52	2.18	2.27	1.98	2.51	3.13	1.77	1.74	1.46
E fixed	0.87	2.23	2.59	2.2	1.61	2.35	7.3	2.19	1.53
F fixed	3.75	0.919	0.861	0.916	0.658	0.508	0.751	1.06	1.37
G fixed	0.529	0.54	0.81	0.842	0.587	0.655	0.583	0.9	1.25
H fixed	0.628	0.999	0.914	0.988	1.16	0.8	0.625	0.888	1.11
I fixed	1.3	0.971	0.835	0.974	0.697	0.558	0.318	0.888	0.806
K fixed	0.452	0.227	0.358	0.442	0.634	0.3	0.292	0.638	0.722
L fixed	1.02	0.707	0.874	0.982	0.701	1.23	0.608	1.11	0.844
M fixed	1.78	1.01	0.85	0.869	0.874	1.24	0.763	0.866	0.842
N fixed	0.567	0.99	1.05	0.866	1.24	1.88	0.687	1	0.955
P fixed	0.159	0.532	0.609	1.07	1.46	0.736	0.482	0.928	0.955
Q fixed	1.2	0.752	0.987	0.877	0.833	0.883	0.717	0.846	0.692
R fixed	0.691	0.438	0.396	0.441	0.79	0.465	0.333	0.609	0.694
V fixed	0.994	0.841	0.765	0.554	0.899	0.391	0.269	0.775	0.757
W fixed	0.683	1.31	1.08	1.24	0.469	0.458	0.48	0.907	0.977
Y fixed	1.28	1.44	1.05	0.968	0.997	0.676	0.459	0.845	1.06
pThr fixed	1.33	2.29	2.39	3.26	1.07	1.08	1.05	1.68	1.04
pTyr fixed	1.4	11	2.89	3.61	4.55	0.912	1.2	1.6	1.63

CDC42BPB, construct: aa1-473, human (from UniProt Q9Y5S2)
relative phosphorylation
Details	at +1	at +2	at +3	at +4	at -1	at -2	at -3	at -4	at -5
A fixed	0.871	1.22	0.922	0.791	0.734	0.478	0.556	0.951	0.922
D fixed	0.4	0.468	0.548	0.721	0.379	0.196	0.199	0.472	0.427
E fixed	0.435	0.373	0.654	0.667	0.313	0.181	0.204	0.506	0.479
F fixed	0.776	0.935	1.01	0.821	0.552	0.442	0.381	0.718	0.843
G fixed	0.803	1.1	1.42	1.07	0.883	0.45	0.44	0.974	1.04
H fixed	0.962	1.19	1.2	1.11	1.21	0.989	1.03	1.06	0.99
I fixed	1.55	1.32	0.96	0.924	0.572	0.419	0.382	0.651	0.788
K fixed	0.865	1.58	1.03	1.34	2.46	2.78	2.55	2.46	2.54
L fixed	1.74	0.816	0.841	0.852	1.36	0.423	0.326	0.7	0.645
M fixed	1.24	0.823	0.944	0.919	1.04	0.459	0.36	0.775	0.664
N fixed	1.89	0.819	0.918	0.856	1.2	0.787	0.524	0.756	0.812
P fixed	0.404	0.842	0.888	1.38	0.786	0.433	0.371	0.873	0.875
Q fixed	1.08	0.699	0.829	1.08	1.09	0.798	0.648	0.851	0.786
R fixed	1.41	1.65	1.52	1.52	2.15	6.46	7.75	3.03	2.81
V fixed	0.983	1.13	0.936	0.787	0.667	0.397	0.335	0.637	0.768
W fixed	0.852	0.934	1.06	1.23	0.648	0.718	0.524	0.849	0.756
Y fixed	0.736	1.12	1.33	0.93	0.97	0.591	0.425	0.735	0.856
pThr fixed	0.479	0.762	0.582	0.698	0.344	0.329	0.352	0.647	0.611
pTyr fixed	0.553	0.745	0.707	0.685	0.467	0.319	0.545	0.558	0.62

EEF2K, construct: Full length, human (from UniProt O00418)
relative phosphorylation
Details	at +1	at +2	at +3	at +4	at -1	at -2	at -3	at -4	at -5
A fixed	1.46	0.748	0.733	0.852	1.3	1.1	0.971	1.01	1.08
D fixed	0.421	0.233	0.609	0.742	1.24	1.24	1.14	0.912	0.748
E fixed	1.5	0.236	0.618	0.644	1.25	1.91	1.13	0.794	0.718
F fixed	0.935	1.16	0.583	0.718	0.881	0.935	0.971	1.61	1.17
G fixed	0.447	0.773	0.679	1.08	1.14	1.13	1.32	1.18	1.07
H fixed	0.864	1.31	0.766	1.28	1.08	0.929	0.971	0.878	0.873
I fixed	1.4	0.647	0.417	0.651	0.598	0.739	0.945	0.932	1.02
K fixed	0.992	2.31	3.25	2.03	0.978	0.631	0.975	1.11	1.24
L fixed	1.09	0.565	0.477	0.643	0.93	0.751	0.975	1.04	0.892
M fixed	1.13	0.909	0.504	0.799	1.05	0.848	0.978	1.17	1.1
N fixed	0.551	0.695	0.918	1.08	1.04	0.655	1.09	0.901	0.975
P fixed	0.253	0.361	0.337	0.96	0.96	1.57	1.08	0.889	1.03
Q fixed	1.33	0.965	0.88	1.07	0.983	1.06	0.893	0.809	0.847
R fixed	1.04	3.13	4.55	1.91	1.14	0.821	1.04	1.08	1.18
V fixed	1.72	0.776	0.537	0.665	0.567	0.833	0.848	0.876	0.993
W fixed	0.885	0.684	0.563	1.1	0.806	0.921	0.79	0.869	1.06
Y fixed	0.989	1.49	0.581	0.762	1.06	0.918	0.886	0.939	1.02
pThr fixed	0.777	0.601	0.648	1.05	0.619	0.91	1.27	0.982	1.29
pTyr fixed	1.85	0.381	0.882	0.738	1	2.03	1.3	0.754	1.47
